T1: Rad4 (yeast, UniProt P14736 1-754)
T1 sequence: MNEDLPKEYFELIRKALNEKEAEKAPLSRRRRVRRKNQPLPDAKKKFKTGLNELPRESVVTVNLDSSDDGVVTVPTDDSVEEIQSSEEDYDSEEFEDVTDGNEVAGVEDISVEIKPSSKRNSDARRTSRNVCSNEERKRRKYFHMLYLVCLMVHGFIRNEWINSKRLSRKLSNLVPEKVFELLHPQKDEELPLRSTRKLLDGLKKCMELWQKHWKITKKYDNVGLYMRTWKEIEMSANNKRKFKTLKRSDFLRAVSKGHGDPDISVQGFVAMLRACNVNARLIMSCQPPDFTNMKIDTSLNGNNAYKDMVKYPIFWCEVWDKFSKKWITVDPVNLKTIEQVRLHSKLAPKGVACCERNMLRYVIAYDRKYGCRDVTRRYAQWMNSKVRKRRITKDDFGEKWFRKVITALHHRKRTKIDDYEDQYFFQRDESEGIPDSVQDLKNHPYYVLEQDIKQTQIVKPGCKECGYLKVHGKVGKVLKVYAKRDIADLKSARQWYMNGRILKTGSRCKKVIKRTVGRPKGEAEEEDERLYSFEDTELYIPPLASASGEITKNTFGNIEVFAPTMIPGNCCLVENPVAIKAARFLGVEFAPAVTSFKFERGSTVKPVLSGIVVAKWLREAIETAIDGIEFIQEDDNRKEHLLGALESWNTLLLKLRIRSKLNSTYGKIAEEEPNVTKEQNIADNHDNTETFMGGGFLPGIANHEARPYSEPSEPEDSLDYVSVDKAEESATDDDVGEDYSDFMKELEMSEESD

T2: Rad3 (yeast (endogenous, purified from yeast), UniProt P06839 1-778)
T2 sequence: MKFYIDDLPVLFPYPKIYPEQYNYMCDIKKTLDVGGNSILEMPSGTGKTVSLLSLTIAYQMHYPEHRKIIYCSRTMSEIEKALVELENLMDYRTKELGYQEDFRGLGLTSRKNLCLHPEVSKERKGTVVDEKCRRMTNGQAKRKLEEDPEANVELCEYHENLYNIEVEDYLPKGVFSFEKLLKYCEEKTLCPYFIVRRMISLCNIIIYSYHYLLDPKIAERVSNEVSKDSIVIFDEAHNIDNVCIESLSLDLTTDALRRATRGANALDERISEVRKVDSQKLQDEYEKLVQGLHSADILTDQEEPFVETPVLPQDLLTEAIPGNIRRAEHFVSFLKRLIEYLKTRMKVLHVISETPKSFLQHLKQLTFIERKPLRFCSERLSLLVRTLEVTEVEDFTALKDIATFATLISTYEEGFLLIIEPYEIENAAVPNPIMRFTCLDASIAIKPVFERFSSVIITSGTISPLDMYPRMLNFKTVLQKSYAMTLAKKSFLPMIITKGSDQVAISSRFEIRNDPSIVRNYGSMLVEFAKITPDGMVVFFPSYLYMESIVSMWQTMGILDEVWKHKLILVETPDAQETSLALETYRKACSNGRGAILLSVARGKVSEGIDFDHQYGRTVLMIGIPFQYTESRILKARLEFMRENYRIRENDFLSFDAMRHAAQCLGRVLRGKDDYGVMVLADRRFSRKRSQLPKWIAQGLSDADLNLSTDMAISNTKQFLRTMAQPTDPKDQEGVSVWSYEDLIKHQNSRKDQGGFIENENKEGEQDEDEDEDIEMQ

T3: Rad4-Rad23-Rad33 complex (yeast, UniProt P14736 1-754; P32628 1-398; Q04231 1-177)
T3 sequence 1: T1 sequence
T3 sequence 2: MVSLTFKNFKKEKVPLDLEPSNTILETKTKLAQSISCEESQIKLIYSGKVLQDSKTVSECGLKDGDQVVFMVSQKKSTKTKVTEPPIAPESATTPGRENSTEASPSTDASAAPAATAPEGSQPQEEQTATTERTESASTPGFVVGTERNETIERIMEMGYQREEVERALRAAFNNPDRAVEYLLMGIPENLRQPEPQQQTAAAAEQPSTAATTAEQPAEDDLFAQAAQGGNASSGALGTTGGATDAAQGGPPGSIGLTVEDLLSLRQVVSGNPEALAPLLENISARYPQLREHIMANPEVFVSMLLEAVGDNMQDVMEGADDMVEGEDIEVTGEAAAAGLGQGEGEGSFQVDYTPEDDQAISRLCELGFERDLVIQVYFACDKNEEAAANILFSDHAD
T3 sequence 3: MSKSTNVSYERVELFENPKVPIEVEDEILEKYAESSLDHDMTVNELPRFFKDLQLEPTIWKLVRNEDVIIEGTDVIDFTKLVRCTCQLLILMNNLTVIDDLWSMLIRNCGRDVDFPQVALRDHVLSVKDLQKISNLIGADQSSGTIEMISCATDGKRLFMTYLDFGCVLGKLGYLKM

B1: Tfb1 (natural protein)
chain: MSHSGAAIFEKVSGIIAINEDVSPAELTWRSTDGDKVHTVVLSTIDKLQATPASSEKMMLRLIGKVDESKKRKDNEGNEVVPKPQRHMFSFNNRTVMDNIKMTLQQIISRYKDADIYEEKRRREESAQHTETPMSSSSVTAGTPTPHLDTPQLNNGAPLINTAKLDDSLSKEKLLTNLKLQQSLLKGNKVLMKVFQETVINAGLPPSEFWSTRIPLLRAFALSTSQKVGPYNVLSTIKPVASSENKVNVNLSREKILNIFENYPIVKKAYTDNVPKNFKEPEFWARFFSSKLFRKLRGEKIMQNDRGDVIIDRYLTLDQEFDRKDDDMLLHPVKKIIDLDGNIQDDPVVRGNRPDFTMQPGVDINGNSDGTVDILKGMNRLSEKMIMALKNEYSRTNLQNKSNITNDEEDEDNDERNELKIDDLNESYKTNYAIIHLKRNAHEKTTDNDAKSSADSIKNADLKVSNQQMLQQLSLVMDNLINKLDLNQVVPNNEVSNKINKRVITAIKINAKQAKHNNVNSALGSFVDNTSQANELEVKSTLPIDLLESCRMLHTTCCEFLKHFYIHFQSGEQKQASTVKKLYNHLKDCIEKLNELFQDVLNGDGESMSNTCTAYLKPVLNSITLATHKYDEYFNEYNNNSN
B2: Rad33 (natural protein)
chain: T3 sequence 3
B3: Ssl1 (natural protein)
chain: MAPVVISESEEDEDRVAITRRTKRQVHFDGEGDDRVDQQQQQHSSSHRDRDKHVQRKKKKRLSNRNLQGSNGGYAWEDEIKRSWDLVKVDDEGDMASLVASIVEARKKRTAKKNITPYQRGIIRSLILTLDCSEAMLEKDLRPNRHAMIIQYAIDFVHEFFDQNPISQMGIIIMRNGLAQLVSQVSGNPQDHIDALKSIRKQEPKGNPSLQNALEMARGLLLPVPAHCTREVLIVFGSLSTTDPGDIHQTIDSLVSEKIRVKVLGLSAQVAICKELCKATNYGDESFYKILLDETHLKELFNEAVTPLPVNKINKGFTLVKMGFPTRIFEDTPTFCSCHSKLVYGGYFCPNCHSKVCSLPTVCPCCDLMLILSTHLARSYHHLMPLKTFAEVPTTEKFRSEDCFSCQSRFPILKNHKNGKLLTSSRYRCEDCKQEFCVDCDVFIHEILHNCPGCESKPVIT
B4: Ssl2 (natural protein)
chain: MTDVEGYQPKSKGKIFPDMGESFFSSDEDSPATDAEIDENYDDNRETSEGRGERDTGAMVTGLKKPRKKTKSSRHTAADSSMNQMDAKDKALLQDTNSDIPADFVPDSVSGMFRSHDFSYLRLRPDHASRPLWISPSDGRIILESFSPLAEQAQDFLVTIAEPISRPSHIHEYKITAYSLYAAVSVGLETDDIISVLDRLSKVPVAESIINFIKGATISYGKVKLVIKHNRYFVETTQADILQMLLNDSVIGPLRIDSDHQVQPPEDVLQQQLQQTAGKPATNVNPNDVEAVFSAVIGGDNEREEEDDDIDAVHSFEIANESVEVVKKRCQEIDYPVLEEYDFRNDHRNPDLDIDLKPSTQIRPYQEKSLSKMFGNGRARSGIIVLPCGAGKTLVGITAACTIKKSVIVLCTSSVSVMQWRQQFLQWCTLQPENCAVFTSDNKEMFQTESGLVVSTYSMVANTRNRSHDSQKVMDFLTGREWGFIILDEVHVVPAAMFRRVVSTIAAHAKLGLTATLVREDDKIGDLNFLIGPKLYEANWMELSQKGHIANVQCAEVWCPMTAEFYQEYLRETARKRMLLYIMNPTKFQACQFLIQYHERRGDKIIVFSDNVYALQEYALKMGKPFIYGSTPQQERMNILQNFQYNDQINTIFLSKVGDTSIDLPEATCLIQISSHYGSRRQEAQRLGRILRAKRRNDEGFNAFFYSLVSKDTQEMYYSTKRQAFLVDQGYAFKVITHLHGMENIPNLAYASPRERRELLQEVLLKNEEAAGIEVGDDADNSVGRGSNGHKRFKSKAVRGEGSLSGLAGGEDMAYMEYSTNKNKELKEHHPLIRKMYYKNLKK

Experiments:
Rad4 = molecular target: T1, Rad4; test: cryo-EM structure
Rad3 = molecular target: T2, Rad3; test: cryo-EM structure
Rad4-Rad23-Rad33 complex = molecular target: T3, Rad4-Rad23-Rad33 complex; test: cross-linking
Ssl2 = molecular target: B4; test: cryo-EM structure

Row | Binder | binding result (Rad4) | binding result (Rad3) | binding result (Rad4-Rad23-Rad33 complex) | binding result (Ssl2)
1 | B1 | binds | binds | binds | –
2 | B2 | binds | – | – | binds
3 | B3 | – | binds | – | –
4 | B4 | – | – | binds | –

From article doi:10.1101/2021.01.14.426755 (bioRxiv, 2021)
